# Patent US20130011380A1
# Assays:
# Assay in all cases: anti-Flag IP-MS, mES nuclear extract
# [1] = molecular target: Racgap1 (mouse) (UniProt Q9WVM1)
# [2] = molecular target: Nars (mouse) (UniProt Q8BP47)
# [3] = molecular target: Gart (mouse) (UniProt Q64737)
# [4] = molecular target: Cct8 (mouse) (UniProt P42932)
# [5] = molecular target: Psmc2 (mouse) (UniProt P46471)
# [6] = molecular target: Pkm2 (mouse) (UniProt P52480)
# [7] = molecular target: Smarca4 (mouse) (UniProt Q3TKT4)
# [8] = molecular target: Vdac1 (mouse) (UniProt Q60932)
# [9] = molecular target: Rps6ka1 (mouse) (UniProt P18653)
# [10] = molecular target: Hspa5 (mouse) (UniProt P20029)
# [11] = molecular target: Chd4 (mouse) (UniProt Q6PDQ2)
# [12] = molecular target: Tubb6 (mouse) (UniProt Q922F4)
# [13] = molecular target: Lmnb2 (mouse) (UniProt P21619)
# [14] = molecular target: Rpn1 (mouse) (UniProt Q91YQ5)
# [15] = molecular target: Aff1 (mouse) (UniProt O88573)
# [16] = molecular target: Lars (mouse) (UniProt Q8BMJ2)
# [17] = molecular target: Mcm3 (mouse) (UniProt P25206)
# [18] = molecular target: Rcc1 (mouse) (UniProt Q8VE37)
# [19] = molecular target: Dync1h1 (mouse) (UniProt Q9JHU4)
# [20] = molecular target: Spnb2 (mouse) (UniProt Q62261)
# [21] = molecular target: Peg10 (mouse) (UniProt Q7TN75)
# [22] = molecular target: Ranbp1 (mouse) (UniProt P34022)
# [23] = molecular target: Krt18 (mouse) (UniProt P05784)
# [24] = molecular target: Lmna (mouse) (UniProt P48678)
# [25] = molecular target: Cct6a (mouse) (UniProt P80317)
# [26] = molecular target: Plec1 (mouse) (UniProt Q9QXS1)
# [27] = molecular target: Hdlbp (mouse) (UniProt Q8VDJ3)
# [28] = molecular target: Pfkl (mouse) (UniProt P12382)
# [29] = molecular target: Nasp (mouse) (UniProt Q99MD9)
# [30] = molecular target: Cse1l (mouse) (UniProt Q9ERK4)
# [31] = molecular target: Ctbp2 (mouse) (UniProt P56546)
# [32] = molecular target: Tmem48 (mouse) (UniProt Q8VCB1)
# [33] = molecular target: Ncapd2 (mouse) (UniProt Q8K2Z4)
# [34] = molecular target: Dnajb6 (mouse) (UniProt O54946)
# [35] = molecular target: Las1l (mouse) (UniProt A2BE28)
# [36] = molecular target: Akap8 (mouse) (UniProt Q9DBR0)
# [37] = molecular target: Sall4 (mouse) (UniProt Q8BX22)
# [38] = molecular target: Kif11 (mouse) (UniProt Q6P9P6)
# [39] = molecular target: Pum2 (mouse) (UniProt Q80U58)
# [40] = molecular target: Pou5f1 (mouse) (UniProt P20263)
# Rcc1 (mouse), sequence (Q8VE37 2-421 limits assumed): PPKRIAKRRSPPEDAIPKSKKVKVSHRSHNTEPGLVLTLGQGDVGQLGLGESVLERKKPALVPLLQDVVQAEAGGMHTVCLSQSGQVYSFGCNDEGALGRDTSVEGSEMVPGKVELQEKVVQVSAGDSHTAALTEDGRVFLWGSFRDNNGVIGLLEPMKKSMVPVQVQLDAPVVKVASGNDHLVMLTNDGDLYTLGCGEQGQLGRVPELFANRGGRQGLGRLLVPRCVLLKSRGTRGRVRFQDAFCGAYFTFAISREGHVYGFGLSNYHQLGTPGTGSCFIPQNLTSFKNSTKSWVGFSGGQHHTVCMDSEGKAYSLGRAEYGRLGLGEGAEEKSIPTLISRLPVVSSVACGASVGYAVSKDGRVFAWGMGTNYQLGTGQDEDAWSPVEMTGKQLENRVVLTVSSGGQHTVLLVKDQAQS
# Rps6ka1 (mouse), sequence (P18653 whole entry): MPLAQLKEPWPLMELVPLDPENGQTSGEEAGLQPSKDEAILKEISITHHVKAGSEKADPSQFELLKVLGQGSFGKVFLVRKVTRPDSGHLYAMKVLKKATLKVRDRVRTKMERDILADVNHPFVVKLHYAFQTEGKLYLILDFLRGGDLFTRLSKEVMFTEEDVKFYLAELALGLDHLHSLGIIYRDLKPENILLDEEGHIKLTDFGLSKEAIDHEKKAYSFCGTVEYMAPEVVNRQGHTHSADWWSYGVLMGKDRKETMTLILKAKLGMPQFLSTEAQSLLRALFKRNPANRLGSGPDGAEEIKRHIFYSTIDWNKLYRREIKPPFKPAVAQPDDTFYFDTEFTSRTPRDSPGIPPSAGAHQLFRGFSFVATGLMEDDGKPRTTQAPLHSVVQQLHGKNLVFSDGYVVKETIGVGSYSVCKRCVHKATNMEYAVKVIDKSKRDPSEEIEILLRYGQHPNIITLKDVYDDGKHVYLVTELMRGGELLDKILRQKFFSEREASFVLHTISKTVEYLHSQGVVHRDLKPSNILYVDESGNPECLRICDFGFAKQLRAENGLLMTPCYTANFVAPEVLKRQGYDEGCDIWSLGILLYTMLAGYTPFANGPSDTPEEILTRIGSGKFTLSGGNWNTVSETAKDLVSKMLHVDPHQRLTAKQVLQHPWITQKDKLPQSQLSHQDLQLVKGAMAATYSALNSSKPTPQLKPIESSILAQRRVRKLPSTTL
# Vdac1 (mouse), sequence (Q60932 whole entry): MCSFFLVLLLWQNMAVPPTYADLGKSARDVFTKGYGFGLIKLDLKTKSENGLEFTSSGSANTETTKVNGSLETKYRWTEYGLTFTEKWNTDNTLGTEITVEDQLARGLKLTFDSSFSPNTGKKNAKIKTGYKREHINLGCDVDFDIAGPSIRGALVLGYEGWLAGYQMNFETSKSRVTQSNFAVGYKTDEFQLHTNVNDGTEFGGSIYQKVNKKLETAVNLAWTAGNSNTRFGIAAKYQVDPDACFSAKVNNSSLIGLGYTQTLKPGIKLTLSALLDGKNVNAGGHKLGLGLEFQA
# Mcm3 (mouse), sequence (P25206 2-812 limits assumed): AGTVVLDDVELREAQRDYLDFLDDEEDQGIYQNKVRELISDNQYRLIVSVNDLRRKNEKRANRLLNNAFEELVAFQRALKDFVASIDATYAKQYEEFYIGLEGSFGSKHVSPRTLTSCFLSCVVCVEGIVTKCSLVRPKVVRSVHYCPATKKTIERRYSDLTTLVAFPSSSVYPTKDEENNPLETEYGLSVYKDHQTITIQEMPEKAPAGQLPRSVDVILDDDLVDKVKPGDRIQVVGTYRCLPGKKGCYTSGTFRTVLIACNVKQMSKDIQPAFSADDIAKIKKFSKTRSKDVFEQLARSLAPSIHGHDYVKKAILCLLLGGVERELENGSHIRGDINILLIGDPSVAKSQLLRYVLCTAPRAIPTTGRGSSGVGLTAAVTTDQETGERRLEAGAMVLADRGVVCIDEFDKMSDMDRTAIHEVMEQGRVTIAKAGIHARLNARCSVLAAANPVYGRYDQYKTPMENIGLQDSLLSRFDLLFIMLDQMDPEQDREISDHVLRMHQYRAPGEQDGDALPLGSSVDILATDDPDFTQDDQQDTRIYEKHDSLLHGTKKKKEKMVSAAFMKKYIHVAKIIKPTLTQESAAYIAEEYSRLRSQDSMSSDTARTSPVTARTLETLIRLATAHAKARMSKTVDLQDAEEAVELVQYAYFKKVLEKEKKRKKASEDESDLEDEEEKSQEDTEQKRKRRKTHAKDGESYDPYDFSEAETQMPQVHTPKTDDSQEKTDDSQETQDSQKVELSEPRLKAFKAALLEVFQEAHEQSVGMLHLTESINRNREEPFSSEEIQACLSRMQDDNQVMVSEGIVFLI
# Cse1l (mouse), sequence (Q9ERK4 whole entry): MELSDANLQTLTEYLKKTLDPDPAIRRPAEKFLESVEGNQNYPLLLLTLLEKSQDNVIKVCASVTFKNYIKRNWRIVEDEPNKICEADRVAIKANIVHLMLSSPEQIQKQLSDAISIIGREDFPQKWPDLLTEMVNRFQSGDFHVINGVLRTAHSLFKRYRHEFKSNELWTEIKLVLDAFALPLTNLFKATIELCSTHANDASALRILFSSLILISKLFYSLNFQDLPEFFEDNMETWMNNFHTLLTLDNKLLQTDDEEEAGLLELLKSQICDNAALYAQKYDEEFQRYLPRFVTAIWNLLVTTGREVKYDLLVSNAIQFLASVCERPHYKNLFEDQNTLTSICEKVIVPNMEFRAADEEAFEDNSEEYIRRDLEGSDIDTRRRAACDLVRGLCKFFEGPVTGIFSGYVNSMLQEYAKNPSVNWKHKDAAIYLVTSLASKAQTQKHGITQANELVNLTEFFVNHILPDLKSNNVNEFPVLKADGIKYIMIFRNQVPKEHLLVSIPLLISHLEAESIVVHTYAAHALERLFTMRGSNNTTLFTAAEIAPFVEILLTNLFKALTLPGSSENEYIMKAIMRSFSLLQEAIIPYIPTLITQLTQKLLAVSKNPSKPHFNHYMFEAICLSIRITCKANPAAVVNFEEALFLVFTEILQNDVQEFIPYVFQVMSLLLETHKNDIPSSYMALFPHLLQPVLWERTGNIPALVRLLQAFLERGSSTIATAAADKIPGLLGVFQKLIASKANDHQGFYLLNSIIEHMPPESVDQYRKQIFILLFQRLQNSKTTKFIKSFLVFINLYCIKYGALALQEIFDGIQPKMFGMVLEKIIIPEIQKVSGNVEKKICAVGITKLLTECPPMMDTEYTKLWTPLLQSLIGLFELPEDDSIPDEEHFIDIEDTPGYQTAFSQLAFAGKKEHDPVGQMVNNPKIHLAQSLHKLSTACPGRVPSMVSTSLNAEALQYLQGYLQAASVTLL
# Tubb6 (mouse), sequence (Q922F4 whole entry): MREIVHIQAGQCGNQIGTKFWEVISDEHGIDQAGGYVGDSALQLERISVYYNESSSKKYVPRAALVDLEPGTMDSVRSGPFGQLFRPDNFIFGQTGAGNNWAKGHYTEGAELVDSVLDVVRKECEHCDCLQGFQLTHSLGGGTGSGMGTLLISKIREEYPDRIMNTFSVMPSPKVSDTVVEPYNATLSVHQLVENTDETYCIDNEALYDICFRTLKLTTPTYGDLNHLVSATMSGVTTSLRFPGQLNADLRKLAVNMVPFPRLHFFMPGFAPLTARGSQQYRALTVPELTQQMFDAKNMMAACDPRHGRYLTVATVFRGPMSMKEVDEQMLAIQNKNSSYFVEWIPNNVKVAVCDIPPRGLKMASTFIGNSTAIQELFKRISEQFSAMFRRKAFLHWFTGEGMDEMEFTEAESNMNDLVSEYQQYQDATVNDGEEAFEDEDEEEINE
# Lmna (mouse), sequence (P48678 1-647 limits assumed): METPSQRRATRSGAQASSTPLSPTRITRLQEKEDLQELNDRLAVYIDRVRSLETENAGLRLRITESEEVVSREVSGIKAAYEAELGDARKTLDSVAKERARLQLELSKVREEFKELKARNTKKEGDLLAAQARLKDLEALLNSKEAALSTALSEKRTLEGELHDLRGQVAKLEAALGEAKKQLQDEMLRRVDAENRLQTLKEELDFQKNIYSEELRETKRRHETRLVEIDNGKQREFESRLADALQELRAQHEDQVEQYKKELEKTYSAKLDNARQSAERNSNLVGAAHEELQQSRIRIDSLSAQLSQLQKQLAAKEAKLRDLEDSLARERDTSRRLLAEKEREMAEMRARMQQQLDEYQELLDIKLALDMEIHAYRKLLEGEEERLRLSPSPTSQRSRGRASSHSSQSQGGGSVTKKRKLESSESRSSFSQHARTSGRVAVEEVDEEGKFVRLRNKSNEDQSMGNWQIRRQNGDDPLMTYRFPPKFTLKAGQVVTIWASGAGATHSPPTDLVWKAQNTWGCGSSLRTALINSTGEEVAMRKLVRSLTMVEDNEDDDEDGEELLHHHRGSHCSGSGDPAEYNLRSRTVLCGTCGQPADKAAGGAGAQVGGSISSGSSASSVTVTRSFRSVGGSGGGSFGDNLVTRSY
# Hspa5 (mouse), sequence (P20029 20-655 limits assumed): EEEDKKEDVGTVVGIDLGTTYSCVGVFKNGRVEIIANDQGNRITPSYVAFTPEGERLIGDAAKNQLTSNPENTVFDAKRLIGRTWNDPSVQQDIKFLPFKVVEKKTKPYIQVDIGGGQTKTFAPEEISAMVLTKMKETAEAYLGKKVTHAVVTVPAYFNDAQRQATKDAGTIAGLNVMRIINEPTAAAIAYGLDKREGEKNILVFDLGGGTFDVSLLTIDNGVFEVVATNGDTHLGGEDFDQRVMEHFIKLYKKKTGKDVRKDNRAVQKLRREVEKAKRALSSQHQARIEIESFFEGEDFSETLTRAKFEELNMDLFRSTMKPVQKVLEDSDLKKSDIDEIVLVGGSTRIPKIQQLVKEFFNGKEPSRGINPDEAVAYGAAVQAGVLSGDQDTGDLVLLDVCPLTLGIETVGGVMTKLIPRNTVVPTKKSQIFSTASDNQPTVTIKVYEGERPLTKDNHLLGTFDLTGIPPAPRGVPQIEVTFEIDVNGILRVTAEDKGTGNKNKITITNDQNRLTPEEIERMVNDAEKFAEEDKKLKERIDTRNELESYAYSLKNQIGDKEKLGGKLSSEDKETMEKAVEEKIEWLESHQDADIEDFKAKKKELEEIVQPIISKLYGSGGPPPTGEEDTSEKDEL
substance,measurement,setting,value
2x Flag tag only (control) (peptide),Nucleus peptide,[1],3 peptides
same,Nucleus spectra,[1],3 spectra
same,Nucleus peptide,[2],3 peptides
same,Nucleus spectra,[2],3 spectra
same,Nucleus peptide,[3],2 peptides
same,Nucleus spectra,[3],3 spectra
same,Nucleus peptide,[4],6 peptides
same,Nucleus spectra,[4],10 spectra
same,Nucleus peptide,[5],1 peptides
same,Nucleus spectra,[5],1 spectra
same,Nucleus peptide,[6],1 peptides
same,Nucleus spectra,[6],1 spectra
same,Nucleus peptide,[7],2 peptides
same,Nucleus spectra,[7],2 spectra
same,Nucleus peptide,[8],1 peptides
same,Nucleus spectra,[8],1 spectra
same,Nucleus peptide,[9],2 peptides
same,Nucleus spectra,[9],3 spectra
same,Nucleus peptide,[10],10 peptides
same,Nucleus spectra,[10],13 spectra
same,Nucleus peptide,[11],4 peptides
same,Nucleus spectra,[11],6 spectra
same,Nucleus peptide,[12],1 peptides
same,Nucleus spectra,[12],1 spectra
same,Nucleus peptide,[13],3 peptides
same,Nucleus spectra,[13],5 spectra
same,Nucleus peptide,[14],0 peptides
same,Nucleus spectra,[14],0 spectra
same,Nucleus peptide,[15],0 peptides
same,Nucleus spectra,[15],0 spectra
same,Nucleus peptide,[16],4 peptides
same,Nucleus spectra,[16],6 spectra
same,Nucleus peptide,[17],5 peptides
same,Nucleus spectra,[17],7 spectra
same,Nucleus peptide,[18],3 peptides
same,Nucleus spectra,[18],6 spectra
same,Nucleus peptide,[19],0 peptides
same,Nucleus spectra,[19],0 spectra
same,Nucleus peptide,[20],7 peptides
same,Nucleus spectra,[20],11 spectra
same,Nucleus peptide,[21],2 peptides
same,Nucleus spectra,[21],2 spectra
same,Nucleus peptide,[22],1 peptides
same,Nucleus spectra,[22],2 spectra
same,Nucleus peptide,[23],13 peptides
same,Nucleus spectra,[23],29 spectra
same,Nucleus peptide,[24],1 peptides
same,Nucleus spectra,[24],3 spectra
same,Nucleus peptide,[25],6 peptides
same,Nucleus spectra,[25],9 spectra
same,Nucleus peptide,[26],15 peptides
same,Nucleus spectra,[26],20 spectra
same,Nucleus peptide,[27],1 peptides
same,Nucleus spectra,[27],1 spectra
same,Nucleus peptide,[28],1 peptides
same,Nucleus spectra,[28],1 spectra
same,Nucleus peptide,[29],1 peptides
same,Nucleus spectra,[29],1 spectra
same,Nucleus peptide,[30],0 peptides
same,Nucleus spectra,[30],0 spectra
same,Nucleus peptide,[31],2 peptides
same,Nucleus spectra,[31],4 spectra
same,Nucleus peptide,[32],1 peptides
same,Nucleus spectra,[32],1 spectra
same,Nucleus peptide,[33],1 peptides
same,Nucleus spectra,[33],1 spectra
same,Nucleus peptide,[34],1 peptides
same,Nucleus spectra,[34],2 spectra
same,Nucleus peptide,[35],2 peptides
same,Nucleus spectra,[35],3 spectra
same,Nucleus peptide,[36],0 peptides
same,Nucleus spectra,[36],0 spectra
same,Nucleus peptide,[37],1 peptides
same,Nucleus spectra,[37],1 spectra
same,Nucleus peptide,[38],0 peptides
same,Nucleus spectra,[38],0 spectra
same,Nucleus peptide,[39],1 peptides
same,Nucleus spectra,[39],1 spectra
same,Nucleus peptide,[40],2 peptides
same,Nucleus spectra,[40],3 spectra
human AID containing two tandem Flag tags (Flag-human AID) (from UniProt Q9GZX7 1-198) (enzyme),Nucleus peptide,[1],6 peptides
same,Nucleus spectra,[1],7 spectra
same,Nucleus peptide,[2],7 peptides
same,Nucleus spectra,[2],16 spectra
same,Nucleus peptide,[3],5 peptides
same,Nucleus spectra,[3],7 spectra
same,Nucleus peptide,[4],12 peptides
same,Nucleus spectra,[4],31 spectra
same,Nucleus peptide,[5],3 peptides
same,Nucleus spectra,[5],7 spectra
same,Nucleus peptide,[6],3 peptides
same,Nucleus spectra,[6],3 spectra
same,Nucleus peptide,[7],5 peptides
same,Nucleus spectra,[7],8 spectra
same,Nucleus peptide,[8],4 peptides
same,Nucleus spectra,[8],5 spectra
same,Nucleus peptide,[9],3 peptides
same,Nucleus spectra,[9],7 spectra
same,Nucleus peptide,[10],13 peptides
same,Nucleus spectra,[10],30 spectra
same,Nucleus peptide,[11],15 peptides
same,Nucleus spectra,[11],26 spectra
same,Nucleus peptide,[12],3 peptides
same,Nucleus spectra,[12],5 spectra
same,Nucleus peptide,[13],10 peptides
same,Nucleus spectra,[13],27 spectra
same,Nucleus peptide,[14],3 peptides
same,Nucleus spectra,[14],5 spectra
same,Nucleus peptide,[15],3 peptides
same,Nucleus spectra,[15],6 spectra
same,Nucleus peptide,[16],9 peptides
same,Nucleus spectra,[16],13 spectra
same,Nucleus peptide,[17],9 peptides
same,Nucleus spectra,[17],22 spectra
same,Nucleus peptide,[18],7 peptides
same,Nucleus spectra,[18],16 spectra
same,Nucleus peptide,[19],16 peptides
same,Nucleus spectra,[19],21 spectra
same,Nucleus peptide,[20],17 peptides
same,Nucleus spectra,[20],26 spectra
same,Nucleus peptide,[21],3 peptides
same,Nucleus spectra,[21],5 spectra
same,Nucleus peptide,[22],2 peptides
same,Nucleus spectra,[22],7 spectra
same,Nucleus peptide,[23],21 peptides
same,Nucleus spectra,[23],96 spectra
same,Nucleus peptide,[24],6 peptides
same,Nucleus spectra,[24],13 spectra
same,Nucleus peptide,[25],9 peptides
same,Nucleus spectra,[25],20 spectra
same,Nucleus peptide,[26],48 peptides
same,Nucleus spectra,[26],94 spectra
same,Nucleus peptide,[27],3 peptides
same,Nucleus spectra,[27],5 spectra
same,Nucleus peptide,[28],6 peptides
same,Nucleus spectra,[28],10 spectra
same,Nucleus peptide,[29],5 peptides
same,Nucleus spectra,[29],9 spectra
same,Nucleus peptide,[30],3 peptides
same,Nucleus spectra,[30],4 spectra
same,Nucleus peptide,[31],4 peptides
same,Nucleus spectra,[31],9 spectra
same,Nucleus peptide,[32],3 peptides
same,Nucleus spectra,[32],4 spectra
same,Nucleus peptide,[33],10 peptides
same,Nucleus spectra,[33],22 spectra
same,Nucleus peptide,[34],5 peptides
same,Nucleus spectra,[34],17 spectra
same,Nucleus peptide,[35],9 peptides
same,Nucleus spectra,[35],21 spectra
same,Nucleus peptide,[36],4 peptides
same,Nucleus spectra,[36],12 spectra
same,Nucleus peptide,[37],6 peptides
same,Nucleus spectra,[37],10 spectra
same,Nucleus peptide,[38],3 peptides
same,Nucleus spectra,[38],4 spectra
same,Nucleus peptide,[39],2 peptides
same,Nucleus spectra,[39],5 spectra
same,Nucleus peptide,[40],4 peptides
same,Nucleus spectra,[40],13 spectra
